Target: GST-BRCT
Assay: cell-based or functional assay

luciferase activity of 17M8-AdMLP-luc driven by GAL4-BRCT (GAL-BRCT) in COS7 cells, with TFII-I expressed: ≤ 2 fold
B1: GST-tagged TFII-I (wild type) (natural protein, UniProt P78347-2 1-957, looked up)
chain: MAQVAMSTLPVEDEESSESRMVVTFLMSALESMCKELAKSKAEVACIAVYETDVFVVGTERGRAFVNTRKDFQKDFVKYCVEEEEKAAEMHKMKSTTQANRMSVDAVEIETLRKTVEDYFCFCYGKALGKSTVVPVPYEKMLRDQSAVVVQGLPEGVAFKHPENYDLATLKWILENKAGISFIIKRPFLEPKKHVGGRVMVTDADRSILSPGGSCGPIKVKTEPTEDSGISLEMAAVTVKEESEDPDYYQYNIQGSHHSSEGNEGTEMEVPAEDDDYSPPSKRPKANELPQPPVPEPANAGKRKVREFNFEKWNARITDLRKQVEELFERKYAQAIKAKGPVTIPYPLFQSHVEDLYVEGLPEGIPFRRPSTYGIPRLERILLAKERIRFVIKKHELLNSTREDLQLDKPASGVKEEWYARITKLRKMVDQLFCKKFAEALGSTEAKAVPYQKFEAHPNDLYVEGLPENIPFRSPSWYGIPRLEKIIQVGNRIKFVIKRPELLTHSTTEVTQPRTNTPVKEDWNVRITKLRKQVEEIFNLKFAQALGLTEAVKVPYPVFESNPEFLYVEGLPEGIPFRSPTWFGIPRLERIVRGSNKIKFVVKKPELVISYLPPGMASKINTKALQSPKRPRSPGSNSKVPEIEVTVEGPNNNNPQTSAVRTPTQTNGSNVPFKPRGREFSFEAWNAKITDLKQKVENLFNEKCGEALGLKQAVKVPFALFESFPEDFYVEGLPEGVPFRRPSTFGIPRLEKILRNKAKIKFIIKKPEMFETAIKESTSSKSPPRKINSSPNVNTTASGVEDLNIIQVTIPDDDNERLSKVEKARQLREQVNDLFSRKFGEAIGMGFPVKVPYRKITINPGCVVVDGMPPGVSFKAPSYLEISSMRRILDSAEFIKFTVIRPFPGLVINNQLVDQSESEGPVIQESAEPSQLEVPATEEIKETDGSSQIKQEPDPTW
